Experimental data as given in publication PMC10073219.

Target: Drosophila melanogaster TRPA1, dTRPA1-A isoform (Drosophila melanogaster)
Test: cryo-EM structure; purified dTRPA1-A in 25 mM HEPES pH 7.4, 150 mM NaCl, 0.02% GDN; grids prepared at 8 °C; two conformations (state-1, 3.2 Å; state-2, 3.0 Å) from the same sample

stoichiometry N: 4
Substance: Drosophila melanogaster TRPA1, dTRPA1-A isoform (natural protein)
